# Experimental data published in article PMC8632718, “Novel Assay Platform to Evaluate Intracellular Killing of Mycobacterium tuberculosis: In Vitro and In Vivo Validation” (Frontiers in Immunology, 2021).
# Numbered stars: 1 amine (or outer) side, 2 acyl side, 3 side chain; on linkers, the order of the positions; unused ones are H or OH. Square brackets hold non-standard residues; d marks the D form. Peptide text beside a SMILES is read from it. * marks the point of attachment. Hydrazinoacetyl = O=C(CNN[*:1])[*:2]; Isonicotinoyl = O=C(c1ccncc1)*
# Key:
# EBC-1 cells = type: cell-based, human; conditions: 10 µM, 3 hrs, fixed, 30 profiles
# Experimental: In addition to the internalization experiments, the surface morphology of INH-peptide-treated and fixed EBC-1 cells was also studied with atomic force microscopy (AFM) ( Supplementary Information 1.3 ). High-resolution imaging of the cell surfaces was performed with a Flex-Axiom AFM system (Nanosurf, Liestal, Switzerland).The representative images and surface roughness of the native and treated cells are shown in Supplementary Figure S2 .
# 1.3 Membrane integrity evaluation by atomic force microscopy (AFM) […]
# High resolution imaging of the surfaces were performed with a Flex-Axiom AFM system (Nanosurf, Liestal, Switzerland) operating in dynamic mode utilizing soft-tapping cantilevers (Tap150-G, BudgetSensors) with nominal force constant of 5 N/m. The recorded images were evaluated with the Gwyddion software. […]
# Two cut-off frequencies were chosen with real-space wavelengths of 1 μm and 200 nm. […] Figure 2D,E,F. Scale dependent surface roughness of the cells was determined according to Antonio et al. Mean Rq values are somewhat higher in the peptide and conjugate treated cells, but […]
# Supplementary Figure 2. […] The apex area of the cells was selected for imaging with a scan area of 5 μm × 5 μm (512 × 512 pixel resolution), where the cellular curvature has the smallest distortion effect on the recorded height profiles. […]
# 1.4. […] To quantify […]
# MonoMac-6 cells = conditions: 50 µM
# [1] = type: in vitro ADME; conditions: rat liver lysosomal homogenate, 37 °C, LC-MS
# Experimental: Next, we examined the enzymatic stability of two peptide conjugates in rat liver lysosomal homogenate (see Supplementary Information 2 for the method description). Peptides were dissolved at 0.025 µg/µl concentration then allowed to react with the lysosomal homogenate. Degradation of the conjugates was fast. […]
# 1.2 Lysosomal degradation studies
# Enzymatic stability of INH-Dhvar4 and INH-Penetratin conjugates were assayed in rat liver lysosomal homogenate (protein content was 16.6 µg/µl). Peptides were dissolved in 0.2 M Sodium acetate buffer (pH=5.03) at 0.025 µg/µl concentration and added to the lysosomal homogenate to reach 1 : 1 protein / peptide ratio (37 °C, 600 rpm vortex) . At different time points (5 min, 30 min, 1 h, 6 h, 24 h) the reaction was stopped by the addition of 5 µl formic acid. Sampled were then measured by LC-MS using a Thermo Scientific Q Exactive Focus Hybrid Quadrupole -Orbitrap Mass Spectrometer (Suppl. Figu re 1). For chromatography, a Wa ters Acquity UPLC BEH C18 (1.7 µ, 150 × 2.1 mm) column was used with a flow rate of 300 µL/min applying a gradient elution from 2% to […]
# (1 picture or pasted object on this page, not shown here)
smiles,measurement,setting,value
CC(C)C[C@H](NC(=O)[C@H](CCCNC(=N)N)NC(=O)[C@H](CCCCN)NC(=O)CNNC(=O)c1ccncc1)C(=O)N[C@@H](Cc1ccccc1)C(=O)N[C@@H](CCCCN)C(=O)N[C@@H](CCCCN)C(=O)N[C@@H](CC(C)C)C(=O)N[C@@H](CC(C)C)C(=O)N[C@@H](Cc1ccccc1)C(=O)N[C@@H](CO)C(=O)N[C@@H](CC(C)C)C(=O)N[C@@H](CCCNC(=N)N)C(=O)N[C@@H](CCCCN)C(=O)N[C@@H](Cc1ccc(O)cc1)C(N)=O [INH-Dhvar4] (Isonicotinoyl-[Hydrazinoacetyl]KRLFKKLLFSLRKY-NH2),membrane integrity (AFM surface roughness Rq),EBC-1 cells,membrane integrity maintained
same,viability of MonoMac-6 cells,MonoMac-6 cells,> 80%
same,peaks of the intact conjugates after 30 min of incubation,"[1]; 0.2 M sodium acetate buffer pH 5.03, 0.025 µg/µl, 1:1 protein/peptide ratio",almost disappeared
same,most stable fragment (main peak after 24 h of incubation),"[1]; pH 5.03, 0.025 µg/µl",tripeptide (KRL) covalently attached to INH
